{"source": "patent US20130123349A1", "binders": {"B1": {"name": "recombinant Aegyptin, O01949 20-273 (protein)", "chain": "RPMPEDEEPVAEGGDDDASGESEGEEETTDDAGGDGGEEENEGEEHAGDKDAGGEDTGKEENTGHDDAGEEDAGEEDAGEEDAGEEDAGEEDAEKEEGEKEDAGDDAGSDDGEEDSTGGDEGEDNAEDSKGSEKNDPADTYRQVVALLDKDTKVDHIQSEYLRSALNNDLQSEVRVPVVEAIGRIGDYSKIQGCFKSMGKDVKKVISEEEKKFKSCMSKKKSEYQCSEDSFAAAKSKLSPITSKIKSCVSSKGRHHHHHH"}}, "key": {"[1]": {"molecular_target": "T1, GFOGER peptide, GPC(GPP)5GFOGER(GPP)5GPC, cross-linked", "assay": "SPR, Aegyptin over immobilized cross-linked GFOGER peptide, two-state model"}, "[2]": {"molecular_target": "T2, […] peptide, GPC-(GPP)5-[…]-(GPP)5-GPC-NH2, cross-linked"}, "[3]": {"molecular_target": "T1, GFOGER peptide, …", "assay": "SPR, Aegyptin over immobilized cross-linked GFOGER peptide, two-state model; Ka1"}, "[4]": {"molecular_target": "T2, […] peptide, …", "remark": "listed apart in the source"}, "[5]": {"molecular_target": "T1, GFOGER peptide, …", "assay": "SPR, Aegyptin over immobilized cross-linked GFOGER peptide, two-state model; Kd1"}, "[6]": {"molecular_target": "T2, […] peptide, …", "assay": "SPR, Aegyptin over immobilized cross-linked RGQOGVMGFO peptide, two-state model"}}, "note": "Read-outs that look alike come from different tables or passages of the source.", "data": [{"binder": "B1", "values": [{"measurement": "Kd", "setting": "[1]", "value": 2400, "unit": "nM"}, {"measurement": "Kd2 (two-state model)", "setting": "[1]", "value": 0.00261, "unit": "s⁻¹"}, {"measurement": "second Ka of the two-state model", "setting": "[1]", "value": 0.000366, "unit": "M⁻¹ s⁻¹"}, {"measurement": "IC50", "setting": "[2]", "value": 300, "unit": "nM"}, {"measurement": "Kd", "setting": "[2]", "value": 139, "unit": "nM"}, {"measurement": "kon", "setting": "[3]", "value": 406000, "unit": "M⁻¹ s⁻¹"}, {"measurement": "koff", "setting": "[4]", "value": 0.013, "unit": "s⁻¹"}, {"measurement": "kon", "setting": "[4]", "value": 61900, "unit": "M⁻¹ s⁻¹"}, {"measurement": "koff", "setting": "[5]", "value": 0.943, "unit": "s⁻¹"}, {"measurement": "Kd", "setting": "[6]", "value": 139, "unit": "nM"}, {"measurement": "Kd2 (two-state model)", "setting": "[6]", "value": 0.00194, "unit": "s⁻¹"}, {"measurement": "second Ka of the two-state model", "setting": "[6]", "value": 0.000981, "unit": "M⁻¹ s⁻¹"}]}]}
